Source: US7098001B2, “Polypeptides having dipeptidyl aminopeptidase activity and nucleic acids encoding same” (Novozymes, Inc., priority 1997, dated 2006)

Legend:
[1] = pH optimum / pH-activity profile of dipeptidyl aminopeptidase I with Ala-Pro-pNA; format: biochemical; conditions: for Average Activty: 2 mg/ml Ala-Pro-pNA, ambient temperature, 5 minutes; for Avg. Activity-Background: corrected for autohydrolysis of Ala-Pro-pNA
Protocol: The Ala-Pro-pNA substrate was prepared by dissolving 100 mg of Ala-Pro-pNA in 1 ml of DMSO and adding 20 μl of the Ala-Pro-pNA-DMSO solution to 980 μl of the universal buffer at the various pH values at ambient temperature. The assay was initiated by adding a 10 μl aliquot of the dipeptidyl aminopeptidase I diluted 20-fold in water to 200 μl of 2 mg/ml Ala-Pro-pNA at the various pH values. The absorbance at 405 nm was monitored for 5 minutes. Autohydrolysis of the substrate as a control was determined by adding 10 μl of water to 200 μl of 2 mg/ml Ala-Pro-pNA at the various pH values.

[2] = synergism of aminopeptidase I and dipeptidyl aminopeptidase I on Ala-Phe-Pro-pNA; format: biochemical; conditions: 100-fold diluted enzyme alone, over 10 minutes
Protocol: The substrate was prepared by dissolving 2 mg of Ala-Phe-Pro-pNA (Bachem, Torrance, Calif.) in 20 μl of DMSO. Then, 980 μl of 50 mM sodium phosphate buffer pH 7.5 and 100 μl of ethanol were added. In a 96 well microtiter plate, 100 μl of the Ala-Phe-Pro-pNA solution was added to 100 μl of 100-fold diluted aminopeptidase I (Example 12); 100 μl of the Ala-Phe-Pro-pNA solution was added to 100 μl of 100-fold diluted dipeptidyl aminopeptidase I (Example 11); and 100 μl of the Ala-Phe-Pro-pNA solution was added to a mixture of 50 μl of 100-fold diluted aminopeptidase I and 50 μl of 100-fold diluted dipeptidyl aminopeptidase I. The absorbance at 405 nm was measured for 10 minutes.

B1: dipeptidyl aminopeptidase I: Recombinant Aspergillus oryzae 1568 (ATCC 20386) dipeptidyl aminopeptidase I, 771 amino acids (SEQ ID NO:2), produced in Fusarium and purified (protein, listed as Aspergillus oryzae)
chain: MKYSKLLLLLVSVVQALDVPRKPHAPTGEGSKRLTFNETVVKQAITPTSRSVQWLSGAEDGSYVYAAEDGSLTIENIVTNESRTLIPADKIPTGKEAFNYWIHPDLSSVLWASNHTKQYRHSFFADYYVQDVESLKSVPLMPDQEGDIQYAQWSPVGNTIAFVRENDLYVWDNGTVTRITDDGGPDMFHGVPDWIYEEEILGDRYALWFSPDGEYLAYLSFNETGVPTYTVQYYMDNQEIAPAYPWELKIRYPKVSQTNPTVTLSLLNIASKEVKQAPIDAFESTDLIIGEVAWLTDTHTTVAAKAFNRVQDQQKVVAVDTASNKATVISDRDGTDGWLDNLLSMKYIGPIKPSDKDAYYIDISDHSGWAHLYLFPVSGGEPIPLTKGDWEVTSILSIDQERQLVYYLSTQHHSTERHLYSVSYSTFAVTPLVDDTVAAYWSASFSANSGYYILTYGGPDVPYQELYTTNSTKPLRTITDNAKVLEQIKDYALPNITYFELPLPSGETLNVMQRLPPGFSPDKKYPILFTPYGGPGAQEVTKRWQALNFKAYVASDSELEYVTWTVDNRGTGFKGRKFRSAVTRQLGLLEAEDQIYAAQQAANIPWIDADHIGIWGWSFGGYLTSKVLEKDSGAFTLGVITAPVSDWRFYDSMYTERYMKTLSTNEEGYETSAVRKTDGFKNVEGGFLIQHGTGDDNVHFQNSAALVDLLMGDGVSPEKLHSQWFTDSDHGISYHGGGVFLYKQLARKLYQEKNRQTQVLMHQWTKKDLEE
pH of optimal activity ([1]; Ala-Pro-pNA as substrate): ~8.7 | pH range over which activity toward Ala-Pro-pNA was possessed ([1]; measured pH range): 4.35 to 9.83 | Average Activty ([1]; pH 4.35): 8.75 mOD/min | Avg. Activity-Background ([1]; pH 4.35): 8.75 mOD/min | Relative Activty ([1]; pH 4.35, relative to pH 8.71): 0.023 | Average Activty ([1]; pH 4.87): 32.5 mOD/min | Avg. Activity-Background ([1]; pH 4.87): 32.5 mOD/min | Relative Activty ([1]; pH 4.87, relative to pH 8.71): 0.088 | Average Activty ([1]; pH 5.36): 75.75 mOD/min | Avg. Activity-Background ([1]; pH 5.36): 75.75 mOD/min | Relative Activty ([1]; pH 5.36, relative to pH 8.71): 0.20 | Average Activty ([1]; pH 5.86): 113.8 mOD/min | Avg. Activity-Background ([1]; pH 5.86): 113.8 mOD/min | Relative Activty ([1]; pH 5.86, relative to pH 8.71): 0.307 | Average Activty ([1]; pH 6.38): 135.48 mOD/min | Avg. Activity-Background ([1]; pH 6.38): 135.48 mOD/min | Relative Activty ([1]; pH 6.38, relative to pH 8.71): 0.365 | Average Activty ([1]; pH 6.85): 168.45 mOD/min | Avg. Activity-Background ([1]; pH 6.85): 166.45 mOD/min | Relative Activty ([1]; pH 6.85, relative to pH 8.71): 0.45 | Average Activty ([1]; pH 7.2): 188.86 mOD/min | Avg. Activity-Background ([1]; pH 7.2): 186.86 mOD/min | Relative Activty ([1]; pH 7.2, relative to pH 8.71): 0.503 | Average Activty ([1]; pH 7.51): 230.97 mOD/min | Avg. Activity-Background ([1]; pH 7.51): 227.97 mOD/min | Relative Activty ([1]; pH 7.51, relative to pH 8.71): 0.615 | Average Activty ([1]; pH 7.97): 308.52 mOD/min | Avg. Activity-Background ([1]; pH 7.97): 302.72 mOD/min | Relative Activty ([1]; pH 7.97, relative to pH 8.71): 0.817 | Relative Activty ([1]; pH 8.71): 1 | Average Activty ([1]; pH 8.71): 383.15 mOD/min | Avg. Activity-Background ([1]; pH 8.71): 370.65 mOD/min | Average Activty ([1]; pH 9.32): 247.68 mOD/min | Avg. Activity-Background ([1]; pH 9.32): 217.88 mOD/min | Relative Activty ([1]; pH 9.32, relative to pH 8.71): 0.588 | Average Activty ([1]; pH 9.83): 171 mOD/min | Avg. Activity-Background ([1]; pH 9.83): 97 mOD/min | Relative Activty ([1]; pH 9.83, relative to pH 8.71): 0.261 | activity on Ala-Phe-Pro-pNA [2]: no activity
